# Measurements as given in publication PMC8116058 (2021).
# Residue numbers refer to the chain shown, from its start.
# B1: TmrA^E523QB (catalytically reduced variant of TmrAB) (complex)
# chain 1: MTEDTYSKAFDRALFARILRYVWPYRLQVVLALLFLLVVTLAAAATPLFFKWAIDLALVPTEPRPLAERFHLLLWISLGFLAVRAVHFAATYGETYLIQWVGQRVLFDLRSDLFAKLMRLHPGFYDRNPVGRLMTRVTSDVDAINQFITGGLVGVIADLFTLVGLLGFMLFLSPKLTLVVLLVAPVLLAVTTWVRLGMRSAYREMRLRLARVNAALQENLSGVETIQLFVKEREREEKFDRLNRDLFRAWVEIIRWFALFFPVVGFLGDFAVASLVYYGGGEVVRGAVSLGLLVAFVDYTRQLFQPLQDLSDKFNLFQGAMASAERIFGVLDTEEELKDPEDPTPIRGFRGEVEFRDVWLAYTPKGVEPTEKDWVLKGVSFRVRPGEKVALVGATGAGKTSVVSLIARFYDPQRGCVFLDGVDVRRYRQEELRRHVGIVLQEPFLFSGTVLDNLRLFDPSVPPERVEEVARFLGAHEFILRLPKGYQTVLGERGAGLSTGEKQLLALVRALLASPDILLILDQATASVDSETEKRLQEALYKAMEGRTSLIIAHRLSTIRHVDRILVFRKGRLVEEGSHEELLAKGGYYAALYRLQFQEA
# chain 2: MTGRSAAPLLRRLWPYVGRYRWRYLWAVLAGLVSIFFFVLTPYFLRLAVDAVQAGRGFGVYALAIVASAALSGLLSYAMRRLAVVASRQVEYDLRRDLLHHLLTLDRDFYHKHRVGDLMNRLNTDLSAVREMVGPGILMGSRLSFLVLLAFLSMYAVNARLAFYLTLILPGIFLAMRFLLRLIDRRYREAQEVFDRISTLAQEAFSGIRVVKGYALERRMVAWFQDLNRLYVEKSLALARVEGPLHALLGFLMGFAFLTVLWAGGAMVVRGELSVGELVQFNAYLAQLTWPILGLGWVMALYQRGLTSLRRLFELLDEKPAIRDEDPLPLALEDLSGEVRFEGVGLKRDGRWLLRGLTLTIPEGMTLGITGRTGSGKSLLAALVPRLLDPSEGRVYVGGHEARRIPLAVLRKAVGVAPQEPFLFSETILENIAFGLDEVDRERVEWAARLAGIHEEILAFPKGYETVLGERGITLSGGQRQRVALARALAKRPKILILDDALSAVDAETEARILQGLKTVLGKQTTLLISHRTAALRHADWIIVLDGGRIVEEGTHESLLQAGGLYAEMDRLQKEVEA
# B2: TmrAB (heterodimeric ABC transport complex from Thermus thermophilus, wild type) (complex)
# chain 1: B1 chain 1 with Q523E
# chain 2: B1 chain 2
# Columns and labels:
# [1] = biological target: T1, macrocyclic peptide CP12, fluorescein-labeled (CP12^F) (N-terminal N-chloroacetyl-D-tyrosine joined by a thioether to a cysteine; fluorescein on the side chain of the C-terminal lysine; C-terminal amide); test: FP; outward-facing, Mg-ATP trapped, detergent-solubilized
# [2] = biological target: T2, macrocyclic peptide CP14, fluorescein-labeled (CP14^F) (N-terminal N-chloroacetyl-D-tyrosine joined by a thioether to a cysteine; fluorescein on the side chain of the C-terminal lysine; C-terminal amide); test: as above
# [3] = biological target: T1, macrocyclic peptide CP12, …; test: FP; inward-facing, no Mg-ATP, detergent-solubilized
# [4] = biological target: T2, macrocyclic peptide CP14, …; test: as above
Binder,Kd [1] [nM],Kd [2] [nM],Kd [3] [nM],Kd [4] [nM]
B1,350,50,–,–
B2,–,–,140,100
